Legend:
[1] = Photophysical properties (absorption and emission spectra in PBS); type: physicochemical; conditions: for Log ϵ / Stokes shift / λ max: 1×10^−5 mol L^−1
Source text: After studying the chemical and biological properties of the MIUs and their corresponding multimodal imaging agents, the photophysical properties of the substances were finally under investigation. Here, we found no significant decrease or shift of the optical and fluorescent characteristics of the bioconjugates compared to the MIUs (Table 2).
Fig. S27 Normalized absorption and emission spectra of 7 (left) and 7a (right), recorded in PBS
at a concentration of c = 1.0 x 10-5 mol/L, emission wavelength stated in the graph (bottom, left
Fig. S28 Normalized absorption and emission spectra of 8 (left) and 8a (right), recorded in PBS
Fig. S29 Normalized absorption and emission spectra of 9 (left) and 9a (right), recorded in PBS […]
Fig. S30 Normalized absorption and emission spectra of 10 (left) and 10a (right), recorded in
PBS at a concentration of c = 1.0 x 10-5 mol/L, emission wavelength stated in the graph (bottom,
Fig. S31 Normalized absorption and emission spectra of 11 (left) and 11a (right), recorded in
Fig. S32 Normalized absorption and emission spectra of 12 (left) and 12a (right), recorded in […]

[2] = target: T1, gastrin-releasing peptide receptor (GRPR) (Homo sapiens, UniProt P30550); test: Competitive displacement assay on stably GRPR-transfected HEK cells using [125I]-Tyr4-bombesin; type: binding; conditions: [125I]-Tyr4-bombesin as competitor, 1 h, ambient temperature, read-out: IC50 (GRPR affinity)
T1 construct: host or cells: Human Embryonic Kidney 293 cells (HEK-GRPR)
T1 sequence (P30550 whole entry, species assumed): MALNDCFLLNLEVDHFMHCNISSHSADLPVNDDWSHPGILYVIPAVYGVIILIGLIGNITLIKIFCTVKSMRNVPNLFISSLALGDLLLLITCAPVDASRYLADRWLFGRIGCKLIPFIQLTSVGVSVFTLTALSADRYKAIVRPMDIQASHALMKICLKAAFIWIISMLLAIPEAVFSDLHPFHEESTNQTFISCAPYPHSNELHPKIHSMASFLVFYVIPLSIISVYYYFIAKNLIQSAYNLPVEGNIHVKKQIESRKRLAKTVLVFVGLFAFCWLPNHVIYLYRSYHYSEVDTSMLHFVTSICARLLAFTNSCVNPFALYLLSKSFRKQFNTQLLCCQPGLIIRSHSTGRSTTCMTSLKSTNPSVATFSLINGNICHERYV
Description: (§1) Competitive receptor binding assay
(§2) Stably GRPR-transfected Human Embryonic Kidney 293 cells (HEK-GRPR) were cultured at 37°C in Dulbecco’s Modified Eagle’s Medium (DMEM, high glucose, GlutaMax-I, 500 mL) […]
(§3) a humidified atmosphere containing 5 % CO2. The medium was exchanged every two or three days and cells were split at >75 % confluence. In vitro binding affinities were determined via competitive displacement experiments which were performed at least trice, each experiment performed in triplicate. A Millipore Multiscreen punch kit and Millipore 96 well filter plates (pore size 1.2 µm) were used. The plates were incubated with PBS/BSA (1%) solution (each well 200 µL) for one hour before use. HEK-GRPR cells were harvested and suspended carefully in Opti-MEM I (GlutaMAX I) medium. 50 µL of a cell suspension containing 105 cells were seeded in each well. To this, a total volume of 50 µL was added to each well, containing 25 µL (0.012 […]
The competitor was added in 11 increasing concentrations ranging from 0.25 – 500 nM for 6 – […]
binding of the radioligand. After one hour of incubation at ambient temperature, the solution was filtrated and the filters were washed with cold PBS (3 times). The filters were collected and […]

[3] = LogD determination of 68Ga-labeled MIUs and bioconjugates (water/1-octanol partition, γ-counter); conditions: pH 7.4
Description: Following the synthesis of the MIUs 6 a–13 a and the corresponding bioconjugates 6–13, the radiolabeling efficiency of the compounds with ^68Ga^3+ was investigated. […] In the following, we investigated the lipophilicity of the MIUs [^68Ga]6 a–[^68Ga]13 a and their bioconjugates [^68Ga]6–[^68Ga]13 (Table 1 and Figure 2 C,D).
A solution of the respective multimodal imaging unit (MIU) 6a – 13a (5 nmol) or multimodal imaging agent 6 - 14 (5 nmol) in H2O (Tracepur quality, 1mM) was added to 90 - 120 MBq of [68Ga]GaCl in a solution obtained by fractioned elution of an IGG 68Ge/68Ga generator system […]
with HCl (0.1 M, 1.6 mL) and subsequent titration to pH 3.5 – 4.2 by addition of sodium acetate solution (1.25 M, 50 – 75 µL). All labeling experiments were performed by addition of 2 mg ascorbic acid to suppress radiolysis-induced product fragmentation. In the labeling experiments of the MIUs 6a – 13a, 1 - 4 mg TCEP x HCl were added and the pH was adjusted to 3.5 – 4.2 by addition of sodium acetate solution (1.25 M). After reaction for 10 min at 45°C, the reaction mixtures were analyzed by analytical radio-HPLC.
For 68Ga-6/6a – 68Ga-13/13a, the water/1-octanol partition coefficient (log ) was determined by […]
adding 5 µL of the respectively 68Ga-labeled compound (0.8 – 1.2 MBq) to a mixture of phosphate buffer (0.05 M, pH 7.4, 795 µL) and 1-octanol (800 µL). The mixtures were intensively shaken for 5 minutes on a vibrating plate. After subsequent centrifugation at 13 000 rpm for 5 min, 125 µL were taken from each phase and measured in a γ-counter. The logD values were calculated from three or four independent experiments, each performed in triplicate.
For 14, the water/1-octanol partition coefficient (logD) was determined by semipreparative HPLC.
For this purpose, 10 µL solution (c = 5 x 10-4 mol/L) of the substance were added to a mixture of 1 mL 1-octanol and 990 µL phosphate buffered solution (0.05 M, pH 7.4) and the mixture was vigorously shaken for 5 minutes. After centrifugation, the phases were separated and both phases were analyzed by semipreparative HPLC. The logD was determined by three separate measurements, each experiment performed in triplicate.
as §1, §2
as §3, with “Opti-” for “Opti-MEM I (GlutaMAX I) medium. 50 µL of a cell suspension containing 105 cells were seeded in each well. To this, a total volume of 50 µL was added to each well, containing 25 µL (0.012”

[4] = 1×10^−5 mol L^−1, excitation wavelength λex=400 nm

Structure (SMILES) | Log ϵ [1] | Stokes shift [1] | λ max [1] | λem ([1]; 1×10^−5 mol L^−1, excitation wavelength λex=500 nm) | IC50 [2] | logD [3] | λem [1, 4]
CSCC[C@H](NC(=O)[C@H](CC(C)C)NC(=O)[C@H](Cc1c[nH]cn1)NC(=O)CNC(=O)[C@@H](NC(=O)[C@H](C)NC(=O)[C@H](Cc1c[nH]c2ccccc12)NC(=O)[C@H](CCC(N)=O)NC(=O)CCOCCOCCOCCOCCNC(=O)CON=Cc1ccc(C(=O)NCCCN(CCCNC(=O)c2ccc(C=NOCC(=O)NCCOCCOCCOCCOCCC(=O)N[C@@H](CCC(N)=O)C(=O)N[C@@H](Cc3c[nH]c4ccccc34)C(=O)N[C@@H](C)C(=O)N[C@H](C(=O)NCC(=O)N[C@@H](Cc3c[nH]cn3)C(=O)N[C@@H](CC(C)C)C(=O)N[C@@H](CCSC)C(N)=O)C(C)C)cc2)CC(=O)N[C@H](CSC2CC(=O)N(CCN3C(=O)CC(SC[C@H](NC(=O)[C@H](CCCCNC(=O)c4ccccc4C4=c5cc6c7c(c5Oc5c4cc4c8c5CCCN8CCC4)CCC[N+]=7CCC6)NC(=O)CC[C@H](C(=O)O)N4CCN(CC(=O)O)CCN(CC(=O)O)CC4)C(N)=O)C3=O)C2=O)C(=O)NCCOCCOCC(N)=O)cc1)C(C)C)C(N)=O (stereo partly shown) [Compound 13] | 4.57 M ^−1 cm^−1 | 20 nm | 590 nm | 610 nm | 18 ± 0.86 nM | -0.81 ± 0.05 | 
CSCC[C@H](NC(=O)[C@H](CC(C)C)NC(=O)[C@H](Cc1c[nH]cn1)NC(=O)CNC(=O)[C@@H](NC(=O)[C@H](C)NC(=O)[C@H](Cc1c[nH]c2ccccc12)NC(=O)[C@H](CCC(N)=O)NC(=O)CCOCCOCCOCCOCCNC(=O)CON=Cc1ccc(C(=O)NCCCN(CCCNC(=O)c2ccc(C=NOCC(=O)NCCOCCOCCOCCOCCC(=O)N[C@@H](CCC(N)=O)C(=O)N[C@@H](Cc3c[nH]c4ccccc34)C(=O)N[C@@H](C)C(=O)N[C@H](C(=O)NCC(=O)N[C@@H](Cc3c[nH]cn3)C(=O)N[C@@H](CC(C)C)C(=O)N[C@@H](CCSC)C(N)=O)C(C)C)cc2)CC(=O)N[C@H](CSC2CC(=O)N(CCN3C(=O)CC(SC[C@H](NC(=O)[C@H](CCCC[n+]4c(C)cc(/C=C/c5ccc(N(C)C)cc5)cc4C)NC(=O)CC[C@H](C(=O)O)N4CCN(CC(=O)O)CCN(CC(=O)O)CC4)C(N)=O)C3=O)C2=O)C(=O)NCCOCCOCC(N)=O)cc1)C(C)C)C(N)=O (stereo partly shown) [Compound 7] | 4.23 M ^−1 cm^−1 | 140 nm | 460 nm |  | 16.5 ± 0.25 nM | -2 ± 0.01 | 600 nm
CSCC[C@H](NC(=O)[C@H](CC(C)C)NC(=O)[C@H](Cc1c[nH]cn1)NC(=O)CNC(=O)[C@@H](NC(=O)[C@H](C)NC(=O)[C@H](Cc1c[nH]c2ccccc12)NC(=O)[C@H](CCC(N)=O)NC(=O)CCOCCOCCOCCOCCNC(=O)CON=Cc1ccc(C(=O)NCCCN(CCCNC(=O)c2ccc(C=NOCC(=O)NCCOCCOCCOCCOCCC(=O)N[C@@H](CCC(N)=O)C(=O)N[C@@H](Cc3c[nH]c4ccccc34)C(=O)N[C@@H](C)C(=O)N[C@H](C(=O)NCC(=O)N[C@@H](Cc3c[nH]cn3)C(=O)N[C@@H](CC(C)C)C(=O)N[C@@H](CCSC)C(N)=O)C(C)C)cc2)CC(=O)N[C@H](CSC2CC(=O)N(CCN3C(=O)CC(SC[C@H](NC(=O)[C@H](CCCCNc4ccc([N+](=O)[O-])c5nonc45)NC(=O)CC[C@H](C(=O)O)N4CCN(CC(=O)O)CCN(CC(=O)O)CC4)C(N)=O)C3=O)C2=O)C(=O)NCCOCCOCC(N)=O)cc1)C(C)C)C(N)=O (stereo partly shown) [Compound 10] | 4.10 M ^−1 cm^−1 |  | 490 nm |  |  | -1.42 ± 0.24 | 545 nm
CSCC[C@H](NC(=O)[C@H](CC(C)C)NC(=O)[C@H](Cc1c[nH]cn1)NC(=O)CNC(=O)[C@@H](NC(=O)[C@H](C)NC(=O)[C@H](Cc1c[nH]c2ccccc12)NC(=O)[C@H](CCC(N)=O)NC(=O)CCOCCOCCOCCOCCNC(=O)CON=Cc1ccc(C(=O)NCCCN(CCCNC(=O)c2ccc(C=NOCC(=O)NCCOCCOCCOCCOCCC(=O)N[C@@H](CCC(N)=O)C(=O)N[C@@H](Cc3c[nH]c4ccccc34)C(=O)N[C@@H](C)C(=O)N[C@H](C(=O)NCC(=O)N[C@@H](Cc3c[nH]cn3)C(=O)N[C@@H](CC(C)C)C(=O)N[C@@H](CCSC)C(N)=O)C(C)C)cc2)CC(=O)N[C@H](CSC2CC(=O)N(CCN3C(=O)CC(SC[C@H](NC(=O)[C@H](CCCCNS(=O)(=O)c4cccc5c(N(C)C)cccc45)NC(=O)CC[C@H](C(=O)O)N4CCN(CC(=O)O)CCN(CC(=O)O)CC4)C(N)=O)C3=O)C2=O)C(=O)NCCOCCOCC(N)=O)cc1)C(C)C)C(N)=O (stereo partly shown) [Compound 9] |  |  |  |  | 26.2 ± 0.89 nM | -1.59 ± 0.06 | 540 nm
CSCC[C@H](NC(=O)[C@H](CC(C)C)NC(=O)[C@H](Cc1c[nH]cn1)NC(=O)CNC(=O)[C@@H](NC(=O)[C@H](C)NC(=O)[C@H](Cc1c[nH]c2ccccc12)NC(=O)[C@H](CCC(N)=O)NC(=O)CCOCCOCCOCCOCCNC(=O)CON=Cc1ccc(C(=O)NCCCN(CCCNC(=O)c2ccc(C=NOCC(=O)NCCOCCOCCOCCOCCC(=O)N[C@@H](CCC(N)=O)C(=O)N[C@@H](Cc3c[nH]c4ccccc34)C(=O)N[C@@H](C)C(=O)N[C@H](C(=O)NCC(=O)N[C@@H](Cc3c[nH]cn3)C(=O)N[C@@H](CC(C)C)C(=O)N[C@@H](CCSC)C(N)=O)C(C)C)cc2)CC(=O)N[C@H](CSC2CC(=O)N(CCN3C(=O)CC(SC[C@H](NC(=O)[C@H](CCCC[n+]4c(C)cc(/C=C/C=C/c5ccc(N(C)C)cc5)cc4C)NC(=O)CC[C@H](C(=O)O)N4CCN(CC(=O)O)CCN(CC(=O)O)CC4)C(N)=O)C3=O)C2=O)C(=O)NCCOCCOCC(N)=O)cc1)C(C)C)C(N)=O (stereo partly shown) [Compound 8] | 4.16 M ^−1 cm^−1 | 230 nm | 470 nm |  | 15.5 ± 0.76 nM | -1.73 ± 0.2 | 700 nm
CSCC[C@H](NC(=O)[C@H](CC(C)C)NC(=O)[C@H](Cc1c[nH]cn1)NC(=O)CNC(=O)[C@@H](NC(=O)[C@H](C)NC(=O)[C@H](Cc1c[nH]c2ccccc12)NC(=O)[C@H](CCC(N)=O)NC(=O)CCOCCOCCOCCOCCNC(=O)CON=Cc1ccc(C(=O)NCCCN(CCCNC(=O)c2ccc(C=NOCC(=O)NCCOCCOCCOCCOCCC(=O)N[C@@H](CCC(N)=O)C(=O)N[C@@H](Cc3c[nH]c4ccccc34)C(=O)N[C@@H](C)C(=O)N[C@H](C(=O)NCC(=O)N[C@@H](Cc3c[nH]cn3)C(=O)N[C@@H](CC(C)C)C(=O)N[C@@H](CCSC)C(N)=O)C(C)C)cc2)CC(=O)N[C@H](CSC2CC(=O)N(CCN3C(=O)CC(SC[C@H](NC(=O)[C@H](CCCCNC(=O)c4cc5cc6c7c(c5oc4=O)CCCN7CCC6)NC(=O)CC[C@H](C(=O)O)N4CCN(CC(=O)O)CCN(CC(=O)O)CC4)C(N)=O)C3=O)C2=O)C(=O)NCCOCCOCC(N)=O)cc1)C(C)C)C(N)=O (stereo partly shown) [Compound 12] | 4.30 M ^−1 cm^−1 | 40 nm | 455 nm |  | 20.9 ± 1.67 nM | -1.72 ± 0.13 | 495 nm
